According to patent US20230173091A1 (published 2023):

Target: T1, CD20 (Acro Biosystems) (UniProt P11836 1-297)
T1 sequence (looked up): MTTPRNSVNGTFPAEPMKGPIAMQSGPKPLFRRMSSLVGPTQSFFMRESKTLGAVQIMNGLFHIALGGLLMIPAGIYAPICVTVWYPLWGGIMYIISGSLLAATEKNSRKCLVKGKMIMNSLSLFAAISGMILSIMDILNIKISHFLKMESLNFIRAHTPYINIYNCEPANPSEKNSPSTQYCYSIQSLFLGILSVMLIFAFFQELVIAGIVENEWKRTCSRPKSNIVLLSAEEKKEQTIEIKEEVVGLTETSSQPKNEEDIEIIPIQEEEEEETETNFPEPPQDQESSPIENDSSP

B1: rituximab (antibody, human IgG1, kappa, V domains shown)
VH: QVQLQQPGAELVKPGASVKMSCKASGYTFTSYNMHWVKQTPGRGLEWIGAIYPGNGDTSYNQKFKGKATLTADKSSSTAYMQLSSLTSEDSAVYYCARSTYYGGDWYFNVWGAGTTVTVSA
VL: QIVLSQSPAILSASPGEKVTMTCRASSSVSYIHWFQQKPGSSPKPWIYATSNLASGVPVRFSGSGSGTSYSLTISRVEAEDAATYYCQQWTSNPPTFGGGTKLEIKR
Kd: < 1 pM
koff: < 1e-07 s⁻¹
kon: 140000 M⁻¹ s⁻¹
